# Residue numbers refer to the chain shown, from its start.
# B1: unnamed (protein)
# chain: MAVGSMLLSMAAQAQVVVFEETFSTGLGKFTAAGSVVTSSGAARLDGCYGCTDGSITSTAISTVDFTGLRLSFDRVTSGLDSGEAGIAEFSTNGSTYTAVESIRTASGRVTFNLPTSAENQSGLRLRFRINASLSSETYTVDNIRLEGTSGSGGGTTNPFEKGPDPTKTMLEASTGPFTYTTTTVSSTTASGYRQGTIYHCTNVTGPFAAVAVVPGYLASQSSINWWGPRLASHGFVVITIDTNSTSDQPPSRATQLMAALNQLKTFSNTSSHPIYRKVDPNRLGVMGWSMGGGGTLIAARDNPTLKAAIPFAPWNSSTNFSTVSVPTLIIACESDSTAPVNSHASPFYNSLPSTTKKAYLEMNNGSHSCANSGNSNAGLIGKYGVSWMKCFMDNDTRFSPYLCGAPHQADLSLTAIDEYRENCPY
# B2: unnamed (protein)
# chain: B1 chain with C201P, C391R
# B3: unnamed (protein)
# chain: B1 chain with C201P, N364C, C391R, D411C
# Substrate: BHET
# Test: Proxy for plastic degradation [Released monomer concentration (HPLC/LC-MS) (TPA+MHET)]
# Details: pH 7; 30 °C
row,Protein,Proxy for plastic degradation [µM]
1,B1,19.1
2,B3,28.8

# Same assay, conditions: pH 7; 40 °C
row,Protein,Proxy for plastic degradation [µM]
1,B1,19.5
2,B3,31.2

# Same assay, conditions: pH 7; 50 °C
row,Protein,Proxy for plastic degradation [µM]
1,B1,20.2
2,B3,37.6

# Same assay, conditions: pH 9; 30 °C
row,Protein,Proxy for plastic degradation [µM]
1,B1,19.6
2,B3,28.9

# Same assay, conditions: pH 9; 40 °C
row,Protein,Proxy for plastic degradation [µM]
1,B1,37.1
2,B3,43.2

# Same assay, conditions: pH 9; 50 °C
row,Protein,Proxy for plastic degradation [µM]
1,B1,55
2,B3,66.1

# Substrate: PET
# Test: Proxy for plastic degradation [Released monomer concentration (HPLC/LC-MS) (MHET+TPA)]
# Details: pH 9; 30 °C; 1 h
row,Protein,Proxy for plastic degradation [µM]
1,B1,2.3
2,B3,12.1

# Same assay, conditions: pH 9; 30 °C; 2 h
row,Protein,Proxy for plastic degradation [µM]
1,B1,3.8
2,B3,22.4

# Same assay, conditions: pH 9; 30 °C; 3 h
row,Protein,Proxy for plastic degradation [µM]
1,B1,1.6
2,B3,33.3

# Same assay, conditions: pH 9; 30 °C; 4 h
row,Protein,Proxy for plastic degradation [µM]
1,B1,5.4
2,B3,44.1

# Same assay, conditions: pH 9; 30 °C; 5 h
row,Protein,Proxy for plastic degradation [µM]
1,B1,4.6
2,B3,64.8

# Same assay, conditions: pH 9; 30 °C; 6 h
row,Protein,Proxy for plastic degradation [µM]
1,B1,4.9
2,B3,72.1

# Same assay, conditions: pH 9; 40 °C; 1 h
row,Protein,Proxy for plastic degradation [µM]
1,B1,0.84
2,B3,24.3

# Same assay, conditions: pH 9; 40 °C; 2 h
row,Protein,Proxy for plastic degradation [µM]
1,B1,3
2,B3,43.4

# Same assay, conditions: pH 9; 40 °C; 3 h
row,Protein,Proxy for plastic degradation [µM]
1,B1,4.3
2,B3,59.5

# Same assay, conditions: pH 9; 40 °C; 4 h
row,Protein,Proxy for plastic degradation [µM]
1,B1,8.2
2,B3,58

# Same assay, conditions: pH 9; 40 °C; 5 h
row,Protein,Proxy for plastic degradation [µM]
1,B1,8
2,B3,101

# Same assay, conditions: pH 9; 40 °C; 6 h
row,Protein,Proxy for plastic degradation [µM]
1,B1,9.8
2,B3,104

# Substrate: PET
# Test: Proxy for plastic degradation [Released monomer concentration (HPLC/LC-MS) (Not Mentioned)]
# Details: pH 9; 1 h
row,Protein,Proxy for plastic degradation [µM]
1,B1,2.3
2,B2,6

# Same assay, conditions: pH 9; 2 h
row,Protein,Proxy for plastic degradation [µM]
1,B1,3.8
2,B2,8.6

# Same assay, conditions: pH 9; 3 h
row,Protein,Proxy for plastic degradation [µM]
1,B1,1.6
2,B2,12.8

# Same assay, conditions: pH 9; 4 h
row,Protein,Proxy for plastic degradation [µM]
1,B1,5.4
2,B2,11.8

# Same assay, conditions: pH 9; 5 h
row,Protein,Proxy for plastic degradation [µM]
1,B1,4.6
2,B2,14.5

# Same assay, conditions: pH 9; 6 h
row,Protein,Proxy for plastic degradation [µM]
1,B1,4.9
2,B2,15

# From the PETadex activity labels (doi:10.3390/molecules28083528)
